Experiments:
[1] = molecular target: T1, human FcγRI receptor protein (R&D Systems) (human, UniProt P12314 16-288); assay: SPR
T1 construct: also called soluble FcγRI; solFcγRI

[2] = molecular target: T2, human FcγRIIa (131R), His- and GST-tagged (human, UniProt P12318 34-217); assay: SPR
T2 construct: Expressed in HEK293T cells, purified by nickel chromatography; also called R131 FcγRIIa; not shown: 6xHis and GST tags of the pTT5 vector
T2 sequence (looked up): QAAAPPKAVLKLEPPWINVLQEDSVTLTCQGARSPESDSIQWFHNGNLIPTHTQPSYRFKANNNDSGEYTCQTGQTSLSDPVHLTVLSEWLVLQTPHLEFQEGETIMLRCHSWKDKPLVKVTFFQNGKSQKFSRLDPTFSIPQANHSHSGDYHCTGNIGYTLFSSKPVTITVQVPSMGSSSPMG

[3] = molecular target: T3, human FcγRIIa (131H), His- and GST-tagged (human, UniProt P12318 34-217); assay: SPR
T3 construct: also called H131 FcγRIIa; HIIa; not shown: 6xHis and GST tags of the pTT5 vector
T3 sequence (looked up): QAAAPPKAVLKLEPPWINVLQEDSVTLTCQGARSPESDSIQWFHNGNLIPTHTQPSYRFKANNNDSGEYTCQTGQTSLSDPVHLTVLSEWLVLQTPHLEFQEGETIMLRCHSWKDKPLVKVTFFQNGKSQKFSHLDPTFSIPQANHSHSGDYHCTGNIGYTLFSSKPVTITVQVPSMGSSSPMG

[4] = molecular target: T4, human FcγRIIIa (158V), His- and GST-tagged (human, UniProt P08637 17-208); assay: SPR
T4 construct: also called V158 FcγRIIIa; VIIIa; not shown: 6xHis and GST tags of the pTT5 vector

[5] = molecular target: T5, human FcγRIIb receptor protein (R&D Systems) (human, UniProt P31994 46-217); assay: Biacore SPR, Kd(native IgG1)/Kd(variant)
T5 construct: Bought protein injected over captured antibody in Biacore; also called CD32b
T5 sequence (looked up): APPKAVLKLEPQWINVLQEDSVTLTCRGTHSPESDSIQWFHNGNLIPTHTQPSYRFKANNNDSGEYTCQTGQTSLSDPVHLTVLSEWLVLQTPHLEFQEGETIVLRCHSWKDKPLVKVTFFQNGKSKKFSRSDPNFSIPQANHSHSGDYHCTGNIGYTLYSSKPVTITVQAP

[6] = molecular target: T5, human FcγRIIb receptor protein (R&D …); assay: Biacore SPR, antibody captured on protein A/G chip, FcγR injected
[7] = molecular target: T6, human FcγRIIb on cells (transfected HEK293T cells; primary human B cells) (human, UniProt P31994 43-310); assay: flow cytometry on FcγRIIb-transfected 293T cells [middle left panel]
T6 construct: whole, on cells; also called CD32b
T6 sequence (looked up): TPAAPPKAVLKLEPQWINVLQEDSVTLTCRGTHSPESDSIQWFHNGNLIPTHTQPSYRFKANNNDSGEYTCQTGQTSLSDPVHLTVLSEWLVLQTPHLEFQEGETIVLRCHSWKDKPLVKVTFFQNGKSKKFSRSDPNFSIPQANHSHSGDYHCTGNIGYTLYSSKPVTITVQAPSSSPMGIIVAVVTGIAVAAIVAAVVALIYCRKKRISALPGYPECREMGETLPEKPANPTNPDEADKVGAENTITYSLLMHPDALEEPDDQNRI
Protocol: (§1) In order to validate the Biacore data and evaluate receptor binding of the variants on the cell surface, binding of select antibodies to cells expressing FcγRIIb was measured. […] HEK293T cells in DMEM with 10% FBS were transfected with human FcγRIIb cDNA in pCMV6 expression vector (Origene Technologies, Rockville, Md.), cultured for 3 days, harvested, washed twice in PBS, resuspended in PBS with 0.1% BSA (PBS/BSA), and aliquoted at 2×10^5 cells per well into 96-well microtiter plates. Fc variant antibodies were serially diluted in PBS/BSA then added to the cells and incubated with mixing for 1 h at room temperature. After extensive washing with PBS/BSA, phycoerythrin (PE)-labeled anti-human-Fab-specific goat F(ab′)2 fragment was added for detection. Cells were incubated for 30 min at room temperature, washed, and resuspended in PBS/BSA. Binding was evaluated using a FACSCanto II flow cytometer (BD Biosciences, San Jose, Calif.), and the mean fluorescence intensity (MFI) was plotted as a function of antibody concentration using Graph Pad Prism software (GraphPad Software, San Diego, Calif.) from which half-maximal binding (EC50) values were determined by sigmoidal dose response modeling.

[8] = molecular target: T6, human FcγRIIb on cells (transfected …); assay: flow cytometry on FcγRIIb-transfected 293T cells [bottom right panel]
Protocol: as §1

[9] = molecular target: T6, human FcγRIIb on cells (transfected …); assay: flow cytometry on FcγRIIb-transfected 293T cells [middle right panel]
Protocol: as §1

T1 sequence (P12314 16-288 limits assumed): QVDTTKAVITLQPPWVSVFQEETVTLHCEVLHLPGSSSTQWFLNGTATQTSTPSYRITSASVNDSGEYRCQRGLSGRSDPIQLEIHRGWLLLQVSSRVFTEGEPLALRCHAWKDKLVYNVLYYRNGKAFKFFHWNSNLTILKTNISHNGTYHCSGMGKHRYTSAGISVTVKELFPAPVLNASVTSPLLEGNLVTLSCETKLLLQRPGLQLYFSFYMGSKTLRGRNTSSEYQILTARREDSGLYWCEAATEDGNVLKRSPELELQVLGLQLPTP
T4 sequence (P08637 17-208 F176V): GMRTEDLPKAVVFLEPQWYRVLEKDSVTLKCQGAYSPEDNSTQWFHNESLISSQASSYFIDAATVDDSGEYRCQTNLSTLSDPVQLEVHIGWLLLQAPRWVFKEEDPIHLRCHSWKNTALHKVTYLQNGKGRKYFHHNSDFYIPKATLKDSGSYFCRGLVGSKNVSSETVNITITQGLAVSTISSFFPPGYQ

B1: anti-CD19 antibody HuAM4G7 IgG1 S267E (antibody)
heavy: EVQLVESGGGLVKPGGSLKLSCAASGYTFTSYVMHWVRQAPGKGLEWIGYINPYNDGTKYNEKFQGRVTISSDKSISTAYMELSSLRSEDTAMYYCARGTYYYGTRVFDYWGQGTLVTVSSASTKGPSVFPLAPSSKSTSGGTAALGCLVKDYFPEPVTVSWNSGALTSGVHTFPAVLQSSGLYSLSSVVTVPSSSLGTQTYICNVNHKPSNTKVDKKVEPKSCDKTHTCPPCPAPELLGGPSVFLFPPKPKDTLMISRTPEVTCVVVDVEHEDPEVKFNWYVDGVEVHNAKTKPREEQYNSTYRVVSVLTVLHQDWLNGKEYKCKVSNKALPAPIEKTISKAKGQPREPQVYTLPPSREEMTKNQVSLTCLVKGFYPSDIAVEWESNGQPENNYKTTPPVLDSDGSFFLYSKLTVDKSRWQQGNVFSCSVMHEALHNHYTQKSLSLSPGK
light: DIVMTQSPATLSLSPGERATLSCRSSKSLQNVNGNTYLYWFQQKPGQSPQLLIYRMSNLNSGVPDRFSGSGSGTEFTLTISSLEPEDFAVYYCMQHLEYPITFGAGTKLEIKRTVAAPSVFIFPPSDEQLKSGTASVVCLLNNFYPREAKVQWKVDNALQSGNSQESVTEQDSKDSTYSLSSTLTLSKADYEKHKVYACEVTHQGLSSPVTKSFNRGEC
notes: Positions in EU numbering; copies: 2 + 2
Fold vs WT IgG1 [1]: 2.81 fold | Kd [1]: 0.117 nM | Fold vs WT IgG1 [2]: 29.5 fold | Kd [2]: 29.1 nM | Fold vs WT IgG1 [3]: 0.753 fold | Kd [3]: 859 nM | Fold vs WT IgG1 [4]: 0.381 fold | Kd [4]: 503 nM | fold affinity relative to native IgG1 [5]: 20.4 fold | Kd [6]: 71.9 nM | EC50 (read off the curve) [7]: ~0.03 µg/mL | EC50 (read off the curve) [8]: ~0.02 µg/mL | EC50 (read off the curve) [9]: ~0.03 µg/mL

Reference: patent publication US20130315910A1 (Xencor, published 2013)
